Residue numbers refer to the chain shown, from its start. Names and notes keep the numbering of the source.
B1: TAR1-5-19-Y49D (other)
VL: DIQMTQSPSSLSASVGDRVTITCRASQSIDSYLHWYQQKPGKAPKLLIDSASELQSGVPSRFSGSGSGTDFTLTISSLQPEDFATYYCQQVVWRPFTFGQGTKVEIKR
B2: TAR1-5-19-Y49N (other)
VL: B1 VL with D49N
B3: HEL4 (other)
VH: EVQLLESGGGLVQPGGSLRLSCAASGFRISDEDMGWVRQAPGKGLEWVSSIYGPSGSTYYADSVKGRFTISRDNSKNTLYLQMNSLRAEDTAVYYCASALEPLSEPLGFWGQGTLVTVSS
notes: Human VH dAb against hen egg lysozyme; also called dAb HEL4; Fd-myc-HEL4

Tests used:
TNF-α [1] = target: T1, TNF-α (UniProt P01375 77-233); assay: RBA-ELISA
T1 construct: also called tumour necrosis factor

TNF-α [2] = target: T1, TNF-α; assay: phage ELISA on TNF-α coated wells, heated 80 C 10 min against unheated
TNF-α [3] = target: T1, TNF-α; assay: RBA-ELISA: dAb competes with binding of soluble TNF-α to immobilised TNF-α receptor
hen egg lysozyme = target: T2, hen egg lysozyme (hen, UniProt P00698 19-147); assay: phage ELISA on immobilised HEL
T2 construct: also called HEL; hen egg white lysozyme
Procedure: Phage ELISA assays. The ELISA wells were coated overnight at 4° C. with one of the following ligands: 10 μg/ml of protein A in PBS, 10 μg/ml of mAb 9E10 in PBS, or 3 mg/ml of HEL in 0.1 M NaHCO₃ buffer, pH 9.6. After blocking the wells with PBS containing 2% Tween-20 (PBST), a dilution series of phage in PBST was incubated for 2 h. After washing with PBS, bound phage were detected as follows. In assays for binding to REL, phage was detected directly using a conjugate of horseradish peroxidase with an anti-M13 monoclonal antibody (Amersham) using 3,3′,5,5′-tetramethylbenzidine as substrate.

protein A [4] = target: T3, protein A (UniProt P38507 37-477); assay: phage ELISA on protein A, heated 80 C against unheated, three data points
T3 construct: also called pA
Procedure: (§1) After biotinylation of the phage, for each clone, a 100 μl sample of phage was transferred to a thin-wall PCR tube (and the remaining biotinylated phage was kept on ice). The tube was placed in a PCR apparatus for incubation at 80° C. during 10 min (temperature of cover lid: 85° C.). After heating, the tube was rapidly cooled down to 4° C. in the PCR apparatus.
(§2) ELISA plates were coated and blocked as described in Section 4. The samples were transferred to the empty wells of coated/blocked ELISA plates, and incubated for 2 hours at room temperature. Unbound phage was then removed by washing the wells 6-ties with PBS. For detection, Str-HRP (from a 1 mg/ml stock in PBS) were diluted 1/2000 in PBS supplemented with 2% v/v TWEEN 20 (Polyoxyethylensorbitan monolaurate; for protein A-based ELISA) or 2% w/v BSA (for protein L-based ELISA), and 100 μl of the resulting solution was added to each ELISA well. After incubation for 1 hour at room temperature, the unbound conjugate was removed by washing the wells 6-times with PBS. For colorimetric reaction, a 10 mg/ml solution of TMB (tetramethylbenzidine) was diluted 100-fold in a buffer of 0.1 M sodium acetate, pH 6.0. Next, hydrogen peroxyde was added (0.4 ul per ml of buffer/TMB, and 100 ul of this solution was added to each ELISA well. After color (blue) developed, the reaction was stopped by adding 50 μl of 1 M sulfuric acid per well (color turns to yellow). The optical density was recorded at 450 nm.
These clones were characterized for refoldability on phage (according to the protocol of Section 5, but with three data points being taken) and in solution.

protein A [5] = target: T3, protein A; assay: phage ELISA on protein A, heated 80 C against unheated, titration (Section 5)
Procedure: as §1, §2

protein A [6] = target: T3, protein A; assay: phage ELISA on protein A, multivalent phage 5x10^11 TU/ml, 80 C 10 min against untreated
Procedure: The ELISA wells were coated overnight at 4° C. with one of the following ligands: 10 μg/ml of protein A in PBS, 10 μg/ml of mAb 9E10 in PBS, or 3 mg/ml of HEL in 0.1 M NaHCO₃ buffer, pH 9.6. After blocking the wells with PBS containing 2% Tween-20 (PBST), a dilution series of phage in PBST was incubated for 2 h. After washing with PBS, bound phage were detected as follows. […] In assays for binding to protein A, the phage (4×10¹⁰ TU/ml in PBS) was first biotinylated at 4° C. with biotin-NHS (Perbio) (50 μM final concentration) and detected by sequential addition of streptavidin-horseradish peroxidase conjugate (1 μg/ml) (Sigma-Aldrich) in PBST, and substrate as above.

T1 sequence (P01375 77-233 limits assumed): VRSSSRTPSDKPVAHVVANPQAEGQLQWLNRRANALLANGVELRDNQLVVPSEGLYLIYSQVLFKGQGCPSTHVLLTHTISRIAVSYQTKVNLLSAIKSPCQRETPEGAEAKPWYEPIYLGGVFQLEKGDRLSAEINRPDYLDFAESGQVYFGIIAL
T2 sequence (P00698 19-147): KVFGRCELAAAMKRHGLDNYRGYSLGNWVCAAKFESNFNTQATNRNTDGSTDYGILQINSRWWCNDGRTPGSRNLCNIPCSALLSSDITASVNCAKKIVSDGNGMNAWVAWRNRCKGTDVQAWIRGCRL

| Binder | fold reduction of binding against TAR1-5-19 (TNF-α [1]) | % refolding (TNF-α binding retained after heating) (TNF-α [2]) | IC50 (TNF-α [3]) | binding result (hen egg lysozyme) | Refoldability on phage (protein A binding retained after heating) (protein A [4]) | % refolding (protein A binding retained after heating) (protein A [5]) | fold reduction of binding after heating (protein A [6]) |
| --- | --- | --- | --- | --- | --- | --- | --- |
| B1 | 6 to 20 fold | 93% | 200 nM |  |  |  |  |
| B2 | 6 to 20 fold | 98% | 900 nM |  |  |  |  |
| B3 |  |  |  | binds | 82% | 18.5% | 3 fold |

From patent US20090005257A1 (published 2009)
